Results: the DeepSol protein solubility set

Assay: soluble on expression in E. coli; label from the status in PepcDB or PDB records

Sequence | soluble on expression in E. coli
MNNHSNKHWHLQMYLPEGKKGVQIRSEDMLKEPQPVIGTGEWNNRQCQDFKELHIGTIILVREGKKAIALCEVTSGCYTDKELHEKYRHSNFRNVKVLDFIAEKDQPPPRLFSQGTLKSCGEWTHQWEYIDKLISLMDKNNPIEEYSQLKEYAQLLESKKNIILQGAPGTGKTYTTASIAVHMCNKNFTDYTDHSKVIEEYERLRDTGQIAFCTFHQSMDYEDFVEGLKPEVKSNNVEYNVENGIFKSICEQAKTKEEADIITCIDKYLQSIKGYENKKKIPTISGRSDLWVWWIEGNDTISTRSAISKSEKGEQYSLSPLNIEKVKLQAIGEAIENNWRQYAQAFINAVKKEYQLDKQISDKPYVLIIDEINRGNVSKIFGELITLLEADKRSGAGSDSNHCISLILPYSKENFSVPSNLYIIGTMNTTDRSTGTIDYAVRRRFAFVTLKSSDKVIKEYAEKQSVEDNVRDASLALFTQINGNLKNDKESFIAKHKAADFELEDLKVGHSYFMAKDIDMLKMKMRYEVVPLIKEYIKDGILRGMQGDESYFEKWMNAECFHQSEPTTNDN | not soluble
MNNQLTEITVVRRQSAPRLEFEAAAIYEYPEHLRPFLSEAPALPGVYIFHSESDTLPLYIGKSVNIRSRVLSHLRTPDEATMLRQARRISWICTAGEMGALLLEARLIKEQQPLFNKRLRRNRQLCSLQLSEQKIEVVSARSVDFSHEPNLFGLFANRRAALQSLQNLADEQKLCYGLLGLEPVSRGRACFRFALKRCAGACCGQETPQAHFLRLQASLERLRVVCWPWKGAIALKESRPQMTQFHIINNWLWLGAVPSLDEAATLVRTPAGFDQDGYKILCKPLMSGQYEIIELHTDCRQS | not soluble
MNNRSAVRILRLPAVIQKTGMARATIYDWLNPKSPRYDATFPKKRMLGVKSVGWIEAEIDEWLSQRCKLI | soluble
MNNVIIIGGGIAGLCAAISLQKIGLDVKVYDKNTEPTVAGAGIIIAPNAMQALELYGISKKIKKFGNESDGFNLVSKKGTTFNKLIIPTCYPKMYSIHRKDLHQLLLSELKEDTVKWGKECVKIEQNEENALKIVFQDGSEALGNILIAADGIHSIVRKQVTQGDNYRYAGYTCWRGVTPTKNLSLTNDFIETWGTNGRFGIVPLPNNEVYWYALINAKARDPKYKAYTTTDLYNHFKTYHNPIPSILQNASDIDMIHRDIIDITPMKQFFDKRIVFIGDAAHALTPNLGQGACQAIEDAIILAECIKNNAYYRQAFTEFEQKRRDRIEKISNTAWKVGKIAQIESKPLTIVRNKVMKRIPKWISERQAHELYRFHL | not soluble
MNNYIDLAKTYGGFTSLDTNYLNHLLASLTDQQKLAFITPPPSVINAYFAEIYQKQSPQAATDYYFNLSKALGLFTDQPSFEEEKPFVRLNLSGKAYGFAYQNDQEVALVFSEKAEPKKPELFFELTQIFPQYMVYEDKGQLKMQAKQFEQGECEDITPDDTLLSKIYRLANGITMLKGFNVEELWALSQTFSGQKYYDFAQREFMIYITQ | not soluble
MNPASPFATLTDRIDWQKVDGLVPAIVQDFQSSQVLMMGYMNPEALQKTLDTQQVTFFSRSKQRLWTKGETSGHVLQLKNIALDCDQDTLLVKVNPIGPTCHTGTVTCWDGDAQEESQMVWLHQLEQLLAERKNADPSSSYTASLYARGTKRIAQKVGEEGVEVALAATAGDKEELICESADLMYHLLVLLQEQGLAMNDVINKLKERHK | not soluble
MNPEKNLYPYTQESSLEQALNFEIAQVWHTRSEGTYRSFDKTHIYWCSLKHPEHQKAVVIVNGRIESAWKYQELCYDLFRQGFDVYTYDHRGQGRSERLTEDRQIGHVHEFQDYVTDLKALVEHFDLGHYQERFLLAHSMGGAIATRYIQTTPAHPFSALALSAPMFGVNMPWYLRPWALLITQIMAAVTLKPSYAPGYGPYHAKPFHLNLLTHSETRYQLFRELYEAHPELQIGGPSHRWVWQSLMATKQCLQLTRQIKIPMLILQAGEEAIVCNRAQIRLFKKLSRTQKRAALCRIAGARHELLFEQDAYRNQTLDHILRFFADSTIDHKRQHHRP | not soluble
MNPNFLDFEQPIADLQAKIEELRLVGNDNSLNIGDEISRLQDKSKTLTESIFGNLTSWQIARMARHPRRPYTLDYIENIFTEFDELHGDRHFSDDAAIVGGIARLDNQPVMIIGHQKGREVREKVRRNFGMPRPEGYRKACRLMEMAERFKMPILTFIDTPGAYPGIDAEERNQSEAIAWNLRVMARLKTPIIATVIGEGGSGGALAIGVCDQLNMLQYSTYAVISPEGCASILWKTAEKAPDAAEAMGITADRLKGLGIVDKVIAEPLGGAHRDPVAAAALIREELSSQLAMLKAFDNDALLARRYDRLMSYGL | not soluble
MNQAFKALADPTRRKILDLLKEGDLTAGEIAEHFNMTKPSISHHLNALKNAELIQDEKKGQFVMYSLNTTVFQDLLTWVFTFTNKGEEGK | not soluble
MNQKDVKLTVFSSDEKSFMVTATLVEKAGHAFLINSKFTQSDSKEIVEYLKKNNLSLDKIFIIHGDPDYYFGLESIKAVYPEAIAYATESTVEHIVHSVLGKLKVWKDALGENAPSNVVLPQVFKEKAIDFQGLTFELVGLEHYRTSLFNKELKVLIGGIDVFNEIHVFLADTSSKAAMEAWIENLKVLQALHADIIVPSHGSIEKSLNNQALTATMDYLRTAVQASEESGTSKDFVAKLEAAYPDYANKGVLELSAKVVTKELEHHHHHH | not soluble
MNQKLLKLENLLRFHTICRQVHSPSQRRLLAWCRHGFAPASSVWRDLLGARSWQTDMLIGSALHQHRLLVTKKEKRPPRSQLSPVKTKKEVEVWVGMTVEDLASAMAKDIDCVYEALLNTAIDVDSLEANSHLDEVWIKEVIKKAGMKLKWSKLKQERIRENKDAVRRPGTDPALLKPRSPVVTVMGHVDHGKTTLLDKLRETQVAAMEVGGITQHIGAFLVSLPSGEKITFLDTPGHAAFSAMRARGAQVTDIVVLVVAADDGVMKQTVESIQHAKDAEVPIILAINKCDKTDADPEKVKKELLAYDVVCEEYGGDVQAVHVSALTGDNLMALAEATIALAEILELKADPTGPVEGTVIESFTDKGRGPVTTAIIQRGTLRKGSILVAGKSWAKVRLIFDENGKILNEAYPSMPVGIIGWRDLPSAGDEILEVESEPRAREVIEWRKSEQKEEKGKDDLKIMEEKRREHQEAHRKAREKYGSLHWKERSYIKFLERKQQRPLKPKEKVERQSNVLPIIIKGDVDGSVEAILNLLDTYDASHECELELVHFGLGDISENDVTFAETFDGVIYGFNVEAGSAIQQSAAQKGVKIKLHKIIYHLIEDLQEELSSRLPHTLEEYPIGEASILATFTVTEGKKKIPVADCRVQKGQLERHKKFKLIRNGQVIWKGSLTSLKHHKDDISVIKTGMDCGLSLDEEKVEFKPGDQVICYEENKVPTKTSWDPGF | soluble
MNQKMIIGNAEAICLPELGITHLEARIDTGAQTSSLHVDNIDCFEKDGQSYVAFDLHPDVYHLEQVVRCTAKLKANRKVKSSNGTFEHRCVITTMLRLGDQEWPIDITLTNREKMTYMMLLGRQGMADKVLVDPSQSHLLAS | not soluble
MNQKYILSANNNSLIEEIHNTVQSIGYCIVRGLNLNHLDGSRRNKKLFDFLSQLGMLTNHKGDGFKSIFWDIKY | not soluble
MNQLVCPLCCETLKEEGAHFYKHFKYKRYACGESTCDMGFYTQQELNAHCSKHGHKRSFQKTVNPYIDKMISVVVEDAYALATDDMETVLEKRWGRDPRSVSPTSPVKKTPTDSAKNKRSSVVTPTSPPVPKKAKSGTSTTSPFAFLNRRTNNSESSLCPNASSTSAQPASSSSAQAIVDSTTSEHNISIDKTKKPRKKRNESMTAAQNQEKAGKNANYDEMSAIDKLIGWFDPNVPERRDAAKVKCAVCNEEIVYDFILRKGHVTRSHMAADVAPEDYDDLLKTAMDRSYPDLPNSDLACQLCMTGAEVRKNMRREHIEKLHTTSLPPLTCPVGECEKGFRRQCDLSSHMKDTHKASMAVYKNATFQQVRRRRNAMINEMINKCFPWSRLEAIENKTVVGEKSDSVNRAPVDRSFDTDVRVRDVNKTRRAPQYNANRSSSSDSDSEHEEAASVATGEVSETGGTDDFPQDVIYICHQFNTEVAQKLSQIVRIKPEIIDVEDVLMNDVTMEINEIPVKEETEEEQPKEENNSTLPSIPIPSIFSPYEPIVPPPATSPDPMNPPIASLLPTRILSATNVLENKYNENVSSRRSTSRERSSNRNYDERWSRNDYSNPRNYSNRSFHQRNQRGHSSSNRFNSPFVSRNNYNNNSETTEGSSRRSEYNSSSSNHHSRSSYRGNRDDRGSRW | not soluble
MNQQTYAFTLEMEVRDYECDMQGIVNNSVYQNYLEHARHVYLKTVGIDFKEFTERGINLVVVRAELDYKLPLQSGDRFRVGLNMVRQSPLRFAFYQDILRLPDMKPAVKARIIGTALNGRGRPEIPAELEALMQPGELEHHHHHH | soluble
MNQTLLSSFGTPFERVENALAALREGRGVMVLDDEDRENEGDMIFPAETMTVEQMALTIRHGSGIVCLCITEDRRKQLDLPMMVENNTSAYGTGFTVTIEAAEGVTTGVSAADRITTVRAAIADGAKPSDLNRPGHVFPLRAQAGGVLTRGGHTEATIDLMTLAGFKPAGVLCELTNDDGTMARAPECIEFANKHNMALVTIEDLVAYRQAHERKAS | soluble
MNRIKVAILFGGCSEEHDVSVKSAIEIAANINKEKYEPLYIGITKSGVWKMCEKPCAEWENENCYSAVLSPDKKMHGLLVKKNHEYEINHVDVAFSALHGKSGEDGSIQGLFELSGIPFVGCDIQSSAICMDKSLTYIVAKNAGIATPAFWVINKDDRPVAATFTYPVFVKPARSGSSFGVKKVNSADELDYAIESARQYDSKILIEQAVSGCEVGCAVLGNSAALVVGEVDQIRLQYGIFRIHQEVEPEKGSENAVITVPADLSAEERGRIQETVKKIYKTLGCRGLARVDMFLQDNGRIVLNEVNTLPGFTSYSRYPRMMAAAGISLPELIDRLIVLALKG | soluble
MNRLLQQSVSRGPLAVRASSTITTKPPTPNQITKNNAQFDKVTHTGQAWDQSDYRLQRFDISKKSVNPNVAMHLIDQRPPEDCGDKRVVFCDGGHPALGHPKVYINLDKPGVHACGYCGNRFYNSHATKAEDMKIQHLNC | not soluble
MNRMDNDLLAIQEARILIENAREAQKALATFSQEKLDRIVERMAGEVVKYARELAMMSHEETGFGKWQDKYIKNIFASDFLCKKIRKMKVVGIIAEDKENQTLDVGVPVGVIVALLPSTNPVSTAIYKTLIAIKSGNAIVFSPHPKAKKTTRRVLEILVRTAEASGLPCGAIGYQRTQALEGTLGLMNHKDTALIIVTGVPKLVKAAYAAGKPTIYGGPGNGPAFIERSADIKQAVADIITSRTFDHGIVSASEQSVVAEECIADEVRQELRGNGGYFLSEEEAEQLGKLFLRPDGSVNPDIVGKSAVELARKIGITVSENTKVLISEQKFVSPTNPYAKEKLCPVLAFYVEKDWFNACEKCIELLLNDGRGHTLVIHSRNEQVIREFALKKPVSRVLVNTPATLGGIGGTTNLFPALTLGCGAVGGGFTSDNVSPLNLINIRKVGYGVRKLEDITCGVQAESVGSSESAGLTRLTGLNGSLCPGPGYPKERTQDLNELLETLLEQLLPYRNA | not soluble
MNRMKTKQIDRHLAKFAYSEEFVGDTKRSTAAYTSVREDASIGSTHKLPLEVEEFGKMSNTVILGCGLSGMLTALSFAQKGIKTTIFESKSVKSPEFFKDIRTTALTPHSKNFLFSIDIWEELEKFVAEMQDIYVVDNQASEILDLRNDADAVLGYVVKNSDFKKMLLSKITNNPLITLIDNNQYQEVISHNDYSIIKFDDNQIKCNLLIICDGANSKVRSHYFANEIEKPYQTALTFNIKHEKPHENCAMEHFLPFGPFALLPLKDQYASSVIWSTSSDQAALIVNLPVEEVRFLTQRNAGNSLGKITIDSEISSFPLKARIANRYFHNRIVLIADTAHTVHPLAGQGLNQGIKDIEILSMIVSNNGPLQEYQKLRQEDNFIMYKLTDELNNIFSNHSKNLRCLRQIGFKVINNFKPVKNLITSYAMGKR | not soluble
